Measured values published in US20230265192A1 (GIGAGEN, published 2023).

Experiments:
[1] = molecular target: T1, His-tagged cynomolgus CTLA-4 (CT4-C5227; Acro Biosystems) (cynomolgus, UniProt G7PL88 36-161); experiment: BLI (Octet)
T1 construct: also called soluble cynomolgus CTLA-4; cyno CTLA-4
Protocol: (§1) The binding specificity and affinity of each full-length antibody towards CTLA-4 were determined using biolayer interferometry (BLI) and/or surface plasmon resonance (SPR). Anti-cyno CTLA-4 and anti-mouse CTLA-4 affinities were tested using ForteBio (BLI). Anti-human CTLA-4 affinities were measured using Carterra (SPR).
(§2) For BLI, antibodies were loaded onto an Anti-Human IgG Fc (AHC) biosensor using the Octet Red96 system (ForteBio). Loaded biosensors were dipped into antigen dilutions beginning at 300 nM, with 6 serial dilutions at 1:3. Kinetic analysis was performed using a 1:1 binding model and global fitting.

mouse CTLA-4 = mouse CTLA-4 (mouse, UniProt P09793 36-161, limits assumed); experiment: BLI (Octet)
Sequence of mouse CTLA-4 (P09793 36-161 limits assumed): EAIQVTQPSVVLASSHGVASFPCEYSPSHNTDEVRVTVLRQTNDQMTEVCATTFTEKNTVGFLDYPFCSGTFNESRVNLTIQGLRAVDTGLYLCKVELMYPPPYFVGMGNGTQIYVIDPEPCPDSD
Protocol: as §1, §2

[2] = molecular target: T2, His-tagged human CTLA-4 (CT4-H5229; Acro Biosystems) (human, UniProt P16410 36-161); experiment: SPR (Carterra)
T2 construct: bought soluble protein; also called soluble human CTLA-4; recombinant human CTLA-4; not shown: His tag
T2 sequence (P16410 36-161 limits assumed): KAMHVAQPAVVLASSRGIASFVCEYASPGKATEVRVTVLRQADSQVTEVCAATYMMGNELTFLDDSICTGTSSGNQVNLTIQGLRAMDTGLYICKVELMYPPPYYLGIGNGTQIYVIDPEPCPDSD
Protocol: (§3) Then, goat anti-Human IgG Fc (Southern Biotech 2047-01) was coupled for 10 minutes at […] in 10 mM Sodim Acetate pH 4.5 (Carterra Inc.). The surface was then deactivated with 1 M ethanolamine pH 8.5 (Carterra Inc.). Running buffer used for the lawn immobilization was HBS-EPC (10 mM HEPES, 150 mM NaCl, 3 mM EDTA, 0.05% Tween 20, pH 7.4; Teknova).
(§4) The sensor chip was then transferred to a continuous flow microspotter (CFM; Carterra Inc.) for array capturing. The mAb supernatants were diluted 50-fold ([…] final concentration) into HBS-EPC with 1 mg/mL BSA. The samples were each captured twice with 15-minute and 4-minute capture steps on the first and second prints, respectively, to create multiple densities, using a […] flow rate. The running buffer in the CFM was also HBS-EPC.
(§5) Next, the sensor chip was loaded onto an SPR reader (MX-96 system; Ibis Technologies) for the kinetic analysis. CTLA-4 was injected at five increasing concentrations in a four-fold dilution series with concentrations of 1.95, 7.8, 31.25, 125, and 500 nM in running buffer (HBS-EPC with 1.0 mg/mL BSA). CTLA-4 injections were 5 minutes with a 15-minute dissociation at […] in a non-regenerative kinetic series. An injection of the goat anti-Human IgG Fc capture antibody at […] was injected at the end of the series to verify the capture level of each mAb. Binding data was double referenced by subtracting an interspot surface and a blank injection and analyzed for ka (on-rate), kd (off-rate), and KD (affinity) using the Kinetic Interaction Tool software (Carterra Inc.).

[3] = molecular target: T2, His-tagged human CTLA-4 (CT4-H5229; …); experiment: SPR (Carterra); remark: listed apart in the source
Protocol: as §3, §4, §5

[4] = molecular target: T3, human CTLA-4 expressed on the cell surface (human, UniProt P16410 36-223); experiment: cell-based or functional assay
T3 sequence (P16410 36-223 limits assumed): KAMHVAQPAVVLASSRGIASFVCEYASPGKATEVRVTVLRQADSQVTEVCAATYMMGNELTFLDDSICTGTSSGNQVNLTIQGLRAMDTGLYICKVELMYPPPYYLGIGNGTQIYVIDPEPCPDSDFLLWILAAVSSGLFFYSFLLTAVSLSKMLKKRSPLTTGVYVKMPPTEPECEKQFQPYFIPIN

[5] = molecular target: T3, human CTLA-4 expressed on the cell …; experiment: cell-based or functional assay; remark: listed apart in the source
[6] = molecular target: T2, His-tagged human CTLA-4 (CT4-H5229; …); experiment: SPR (Carterra), soluble human CTLA-4
[7] = molecular target: T1, His-tagged cynomolgus CTLA-4 …; experiment: BLI (Octet), single antigen concentration
Protocol: (§6) Table 23. In vitro characterization of scFvs reformatted as full-length antibodies. kon, koff, and KD of the indicated CTLA-4 mAbs for soluble human CTLA-4 was determined by SPR (Carterra). Geometric MFI of the indicated CTLA-4 mAbs bound to CTLA-4⁺ or CD27⁺ CHO cells as detected by a secondary human IgG antibody and flow cytometry. Affinity (KD) of the indicated CTLA-4 mAbs for soluble cynomolgus CTLA-4 was determined by a single antigen concentration BLI measurement (Octet). […] Due to constraints on sample size in each Promega bioassay kit, this set of aCTLA-4 mAbs was analyzed using multiple plates (plate letters correspond to Plate A-D in FIG. 20D).
Antibodies were loaded at 5 μg/mL onto Protein A biosensors that were dipped into 80 nM antigen, and kinetic constants were calculated using a monovalent model.

[8] = molecular target: T3, human CTLA-4 expressed on the cell …; experiment: flow cytometry, 10 µg/mL mAb, geometric MFI
Protocol: as §6
(§7) To determine if the CTLA-4 mAbs bound the appropriate antigen expressed on the surface of mammalian cells, CHO cell lines stably expressing human CTLA-4 or an irrelevant antigen (CD27) were generated. Cells (0.5×10⁶ each cell line) were combined and washed with MACS buffer (Dulbecco's Phosphate Buffered Saline [DPBS], with 0.5% bovine serum albumin [BSA], and 2 mM ethylenediaminetetraacetic acid [EDTA]). The cells were incubated with 10 μg/mL anti-CTLA-4 for 30 min at 4° C., then excess, unbound mAbs were removed by washing twice with MACS buffer. The cells were then stained with PE-conjugated anti-Human IgG Fc antibody (clone M1310G05, BioLegend 410720, San Diego, Calif., USA) to detect bound anti-CTLA-4 and with fluorescein isothiocyanate (FITC)-conjugated anti-CD27 (clone 0323, BioLegend 302806, San Diego, Calif., USA) to distinguish the cells expressing the irrelevant antigen. Cells were washed twice with MACS buffer, fixed with 4% paraformaldehyde fixation buffer (BioLegend 420801, San Diego, Calif., USA) for 20 minutes at room temperature and washed twice more with MACS buffer.

CD27 on CHO cells [9] = molecular target: T4, CD27 on CHO cells (UniProt P26842 20-260, limits assumed); experiment: flow cytometry, 10 µg/mL mAb, geometric MFI
T4 construct: whole, on cells; also called CD27+ CHO cells; irrelevant antigen (CD27)
T4 sequence (P26842 20-260 limits assumed): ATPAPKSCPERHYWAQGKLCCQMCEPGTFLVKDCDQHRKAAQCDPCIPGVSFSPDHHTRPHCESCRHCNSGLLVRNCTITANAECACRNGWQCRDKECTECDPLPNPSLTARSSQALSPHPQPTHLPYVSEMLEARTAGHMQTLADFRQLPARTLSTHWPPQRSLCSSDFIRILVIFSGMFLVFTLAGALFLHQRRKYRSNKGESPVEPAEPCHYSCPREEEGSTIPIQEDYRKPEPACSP
Protocol: as §6, §7

CD27 on CHO cells [10] = molecular target: T4, CD27 on CHO cells; experiment: flow cytometry, mixed CTLA-4+ and CD27+ CHO cells
Protocol: To determine if the CTLA-4 mAbs bound the appropriate antigen expressed on the surface of mammalian cells, CHO cell lines stably expressing human CTLA-4 or an irrelevant antigen (CD27) were generated. Cells (0.5×10⁶ each cell line) were combined and washed with MACS buffer (Dulbecco's Phosphate Buffered Saline [DPBS], with 0.5% bovine serum albumin [BSA], and 2 mM ethylenediaminetetraacetic acid [EDTA]). The cells were incubated with 10 μg/mL anti-CTLA-4 for 30 min at 4° C., then excess, unbound mAbs were removed by washing twice with MACS buffer. The cells were then stained with PE-conjugated anti-Human IgG Fc antibody (clone M1310G05, BioLegend 410720, San Diego, Calif., USA) to detect bound anti-CTLA-4 and with fluorescein isothiocyanate (FITC)-conjugated anti-CD27 (clone 0323, BioLegend 302806, San Diego, Calif., USA) to distinguish the cells expressing the irrelevant antigen. Cells were washed twice with MACS buffer, fixed with 4% paraformaldehyde fixation buffer (BioLegend 420801, San Diego, Calif., USA) for 20 minutes at room temperature and washed twice more with MACS buffer. […] Binding of mAbs to CTLA-4 on the cell surface was determined using LSR II (BD Biosciences, San Jose, Calif., USA) or CytoFLEX LX (Beckman Coulter, Brea. Calif., USA) flow cytometers and analyzed using FlowJo (v10.6.1, BD Biosciences, San Jose, Calif., USA).

T1 sequence (G7PL88 entry or part of it limits assumed, form in doubt): as the sequence (P16410 36-161 limits assumed) above, with S14N, I18T, L106M counted along it

B1: antibody A4 (L4H4) (antibody, V domains shown)
VH: QVQLVESGGGVVQPGRSLRISCAASGFTFSSYGIHWVRQAPGKGLQWVAVIWYDGRNKYYADSVKGRFTISRDNSKNTLYLQMNSLRAEDTAVYYCSRSGSFGAFDIWGQGTMVTVSS
VL: EIVLTQSPGTLSLSPGDRATLSCRASQSGSSSYLAWYQQKPGQAPRLLIYGASSRATGIPDRFSGSGSGTDFTLTISRLEPEDFAVYYCQQYGTSPFTSGPGTKVDIK
notes: also called aCTLA-4.29
Kd [1]: 1.2 nM
binding result (mouse CTLA-4): no binding (tested: 300 nM)
Kd [2]: 3 nM
Kd [3]: 3 nM
koff [3]: 0.00023 s⁻¹
kon [3]: 76000 M⁻¹ s⁻¹
Promega assay % inhibition [4]: 81%
Promega assay antagonist (EC50, ug/mL) [4]: 0.15 µg/mL
Cell-based blocking activity EC50 [5]: 0.15 µg/mL
Cell-based blocking activity max signal (RLU) [5]: 444 RLU
Kd [6]: 3 nM
koff [6]: 0.00023 s⁻¹
kon [6]: 76000 M⁻¹ s⁻¹
Kd [7]: 1.2 nM
MFI of CTLA-4+ CHO cells [8]: 999
MFI of CD27+ CHO cells (CD27 on CHO cells [9]): 16.3
binding result (CD27 on CHO cells [10]): no binding (tested: 10 µg/mL)

B2: antibody A6 (L6H6) (antibody, V domains shown)
VH: QVQLVESGGGVVQPGRSLRLSCAASGFTFSSYGMHWVRQAPGKGLEWVAVIWYDGSYKYYADSVKGRFTISRDDSKNTLYLQMSSLRAEDTAVYYCARAPHYAILTGYYEDYWGQGTLVTVSS
VL: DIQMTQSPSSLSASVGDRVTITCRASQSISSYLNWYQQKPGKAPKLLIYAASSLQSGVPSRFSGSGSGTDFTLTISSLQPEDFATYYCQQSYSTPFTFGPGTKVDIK
Kd [1]: 1.6 nM
Kd (mouse CTLA-4): 87.8 nM
Kd [2]: 5.7 nM
Kd [3]: 5.7 nM
koff [3]: 0.00035 s⁻¹
kon [3]: 61000 M⁻¹ s⁻¹
Promega assay % inhibition [4]: 61.7%
Promega assay antagonist (EC50, ug/mL) [4]: 0.18 µg/mL
Cell-based blocking activity EC50 [5]: 0.18 µg/mL
Cell-based blocking activity max signal (RLU) [5]: 338 RLU
Kd [6]: 5.7 nM
koff [6]: 0.00035 s⁻¹
kon [6]: 61000 M⁻¹ s⁻¹
Kd [7]: 1.6 nM
MFI of CTLA-4+ CHO cells [8]: 939
MFI of CD27+ CHO cells (CD27 on CHO cells [9]): 17.8
binding result (CD27 on CHO cells [10]): no binding (tested: 10 µg/mL)

B3: antibody A10 (L10H10) (antibody, V domains shown)
VH: QVQLVESGGGVVQPGRSLRLSCVASGFTLSSYGMHWVRQAPGKGLEWVAVIWYDGSNKHYADSVKGRFTISRDNSKNTLSLQMNSLRAEDTAVYYCARGGQLGPFDYWGQGTLVTVSS
VL: not shown
notes: also called aCTLA-4.22
Kd [1]: 3.1 nM
binding result (mouse CTLA-4): no binding (tested: 300 nM)
Kd [2]: 22 nM
Kd [3]: 22 nM
koff [3]: 0.00051 s⁻¹
kon [3]: 23000 M⁻¹ s⁻¹
Promega assay % inhibition [4]: 24.5%
Promega assay antagonist (EC50, ug/mL) [4]: 0.26 µg/mL
Cell-based blocking activity EC50 [5]: 0.26 µg/mL
Cell-based blocking activity max signal (RLU) [5]: 134 RLU
Kd [6]: 22 nM
koff [6]: 0.00051 s⁻¹
kon [6]: 23000 M⁻¹ s⁻¹
Kd [7]: 3.1 nM
MFI of CTLA-4+ CHO cells [8]: 641
MFI of CD27+ CHO cells (CD27 on CHO cells [9]): 15.2
binding result (CD27 on CHO cells [10]): no binding (tested: 10 µg/mL)

B4: antibody A8 (L8H8) (antibody, V domains shown)
VH: QVQLVESGGGVVQPGRSLRLSCAASGFTFSRYGMHWVRQAPGKGLEWVAVIWYDGRNKYYADSVKGRFTISRDNSKNTLYLQMNSLRAEDTALYSCARAGELGPFDYWGQGTLVTVSS
VL: EIVLTQSPGTLSLSPGERATLSCRASQSVSYLAWYQQKPGQAPRLLIYGASSRATGIPDRFSGSGSGTDFTLTISRLEPEDFAVYYCQQYGSSPWTFGQGTKVEIK
notes: also called aCTLA-4.1
Kd [1]: 1 nM
binding result (mouse CTLA-4): no binding (tested: 300 nM)
Kd [2]: 4.6 nM
Kd [3]: 4.6 nM
koff [3]: 0.00039 s⁻¹
kon [3]: 85000 M⁻¹ s⁻¹
Promega assay % inhibition [4]: 54.7%
Promega assay antagonist (EC50, ug/mL) [4]: 0.15 µg/mL
Cell-based blocking activity EC50 [5]: 0.1 µg/mL
Cell-based blocking activity max signal (RLU) [5]: 349 RLU
Kd [6]: 4.6 nM
koff [6]: 0.00039 s⁻¹
kon [6]: 85000 M⁻¹ s⁻¹
Kd [7]: 1 nM
MFI of CTLA-4+ CHO cells [8]: 1010
MFI of CD27+ CHO cells (CD27 on CHO cells [9]): 18.6
binding result (CD27 on CHO cells [10]): no binding (tested: 10 µg/mL)

B5: antibody A13 (L13H13) (antibody, V domains shown)
VH: QVQLVESGGGVVQPGRSLRLSCAASGFTFSSYGMHWVRQAPGKGLEWVAVIWYDGRNKDYADSVKGRITISRDNSKNTLYLQMNSLRAEDTAVYYCARGGLLGPYFDYWGQGTLVTVSS
VL: not shown
notes: also called aCTLA-4.14
Kd [1]: 9.6 nM
Kd [2]: 3.2 nM
Kd [3]: 3.2 nM
koff [3]: 0.00042 s⁻¹
kon [3]: 130000 M⁻¹ s⁻¹
Promega assay % inhibition [4]: 13.3%
Promega assay antagonist (EC50, ug/mL) [4]: 0.09 µg/mL
Cell-based blocking activity EC50 [5]: 0.09 µg/mL
Cell-based blocking activity max signal (RLU) [5]: 73 RLU
Kd [6]: 3.2 nM
koff [6]: 0.00042 s⁻¹
kon [6]: 130000 M⁻¹ s⁻¹
Kd [7]: 9.6 nM
MFI of CTLA-4+ CHO cells [8]: 1024
MFI of CD27+ CHO cells (CD27 on CHO cells [9]): 17
binding result (CD27 on CHO cells [10]): no binding (tested: 10 µg/mL)
